The record followed here is US20250171562A1.

Sequences and labels used below:
B1: NIgG4F2A1(RS) (Fc fusion)
chain 1: DVQLQESGGGLVQAGGSLKLSCAASGGSLSRYDMGWFRQAPGKEREFVARISWSGDTKYYADAVEGRFAISRDNAQNTVYLQMNSLKPEDTAVYYCAVALYGNRGYYDVNTYSYWGQGTRVTVSRSGPPCPPCPAPEFLGGPSVFLFPPKPKDTLMISRTPEVTCVVVDVSQEDPEVQFNWYVDGVEVHNAKTKPREEQFNSTYRVVSVLTVLHQDWLNGKEYKCKVSNKGLPSSIEKTISKAKGQPREPQVYTLPPCQEEMTKNQVSLWCLVKGFYPSDIAVEWESNGQPENNYKTTPPVLDSDGSFFLYSRLTVDKSRWQEGNVFSCSVMHEALHNHYTQKSLSLSLGK
chain 2: EVQLLESGGGLVQPGGSLRLSCAASGFTFGNYDMAWVRQAPGKRPEWVSSIDTGGDITHYADSVKGRFTISRDNAKNTLYLQMNSLRPEDTAVYWCATDEEYALGPNEFDYYGQGTLVTVSSRSGPPCPPCPAPEFLGGPSVFLFPPKPKDTLMISRTPEVTCVVVDVSQEDPEVQFNWYVDGVEVHNAKTKPREEQFNSTYRVVSVLTVLHQDWLNGKEYKCKVSNKGLPSSIEKTISKAKGQPREPQVCTLPPSQEEMTKNQVSLSCAVKGFYPSDIAVEWESNGQPENNYKTTPPVLDSDGSFFLVSRLTVDKSRWQEGNVFSCSVMHEALHNHYTQKSLSLSLGK
B2: CIgG4F1A1(G4S)1 (Fc fusion)
chain 1: GPPCPPCPAPEFLGGPSVFLFPPKPKDTLMISRTPEVTCVVVDVSQEDPEVQFNWYVDGVEVHNAKTKPREEQFNSTYRVVSVLTVLHQDWLNGKEYKCKVSNKGLPSSIEKTISKAKGQPREPQVYTLPPCQEEMTKNQVSLWCLVKGFYPSDIAVEWESNGQPENNYKTTPPVLDSDGSFFLYSRLTVDKSRWQEGNVFSCSVMHEALHNHYTQKSLSLSLGKGGGGSDVQLQESGGGLVQAGGSLKLSCAASGGSLSRYDMGWFRQAPGKEREFVARISWSGTTKYYADAVKGRFAISRDNAKNTVYLQMNSLKPEDTAVYYCAAAFYGNRGYYDVNAYTSSGQGTQVTVS
chain 2: GPPCPPCPAPEFLGGPSVFLFPPKPKDTLMISRTPEVTCVVVDVSQEDPEVQFNWYVDGVEVHNAKTKPREEQFNSTYRVVSVLTVLHQDWLNGKEYKCKVSNKGLPSSIEKTISKAKGQPREPQVCTLPPSQEEMTKNQVSLSCAVKGFYPSDIAVEWESNGQPENNYKTTPPVLDSDGSFFLVSRLTVDKSRWQEGNVFSCSVMHEALHNHYTQKSLSLSLGKGGGGSEVQLLESGGGLVQPGGSLRLSCAASGFTFGNYDMAWVRQAPGKRPEWVSSIDTGGDITHYADSVKGRFTISRDNAKNTLYLQMNSLRPEDTAVYWCATDEEYALGPNEFDYYGQGTLVTVSS
B3: NIgG4F2A1(G4S)2 (Fc fusion)
chain 1: DVQLQESGGGLVQAGGSLKLSCAASGGSLSRYDMGWFRQAPGKEREFVARISWSGDTKYYADAVEGRFAISRDNAQNTVYLQMNSLKPEDTAVYYCAVALYGNRGYYDVNTYSYWGQGTRVTVSGGGGSGGGGSGPPCPPCPAPEFLGGPSVFLFPPKPKDTLMISRTPEVTCVVVDVSQEDPEVQFNWYVDGVEVHNAKTKPREEQFNSTYRVVSVLTVLHQDWLNGKEYKCKVSNKGLPSSIEKTISKAKGQPREPQVYTLPPCQEEMTKNQVSLWCLVKGFYPSDIAVEWESNGQPENNYKTTPPVLDSDGSFFLYSRLTVDKSRWQEGNVFSCSVMHEALHNHYTQKSLSLSLGK
chain 2: EVQLLESGGGLVQPGGSLRLSCAASGFTFGNYDMAWVRQAPGKRPEWVSSIDTGGDITHYADSVKGRFTISRDNAKNTLYLQMNSLRPEDTAVYWCATDEEYALGPNEFDYYGQGTLVTVSSGGGGSGGGGSGPPCPPCPAPEFLGGPSVFLFPPKPKDTLMISRTPEVTCVVVDVSQEDPEVQFNWYVDGVEVHNAKTKPREEQFNSTYRVVSVLTVLHQDWLNGKEYKCKVSNKGLPSSIEKTISKAKGQPREPQVCTLPPSQEEMTKNQVSLSCAVKGFYPSDIAVEWESNGQPENNYKTTPPVLDSDGSFFLVSRLTVDKSRWQEGNVFSCSVMHEALHNHYTQKSLSLSLGK
B4: CIgG4F1A1(G4S)3 (Fc fusion)
chain 1: GPPCPPCPAPEFLGGPSVFLFPPKPKDTLMISRTPEVTCVVVDVSQEDPEVQFNWYVDGVEVHNAKTKPREEQFNSTYRVVSVLTVLHQDWLNGKEYKCKVSNKGLPSSIEKTISKAKGQPREPQVYTLPPCQEEMTKNQVSLWCLVKGFYPSDIAVEWESNGQPENNYKTTPPVLDSDGSFFLYSRLTVDKSRWQEGNVFSCSVMHEALHNHYTQKSLSLSLGKGGGGSGGGGSGGGGSDVQLQESGGGLVQAGGSLKLSCAASGGSLSRYDMGWFRQAPGKEREFVARISWSGTTKYYADAVKGRFAISRDNAKNTVYLQMNSLKPEDTAVYYCAAAFYGNRGYYDVNAYTSSGQGTQVTVS
chain 2: GPPCPPCPAPEFLGGPSVFLFPPKPKDTLMISRTPEVTCVVVDVSQEDPEVQFNWYVDGVEVHNAKTKPREEQFNSTYRVVSVLTVLHQDWLNGKEYKCKVSNKGLPSSIEKTISKAKGQPREPQVCTLPPSQEEMTKNQVSLSCAVKGFYPSDIAVEWESNGQPENNYKTTPPVLDSDGSFFLVSRLTVDKSRWQEGNVFSCSVMHEALHNHYTQKSLSLSLGKGGGGSGGGGSGGGGSEVQLLESGGGLVQPGGSLRLSCAASGFTFGNYDMAWVRQAPGKRPEWVSSIDTGGDITHYADSVKGRFTISRDNAKNTLYLQMNSLRPEDTAVYWCATDEEYALGPNEFDYYGQGTLVTVSS
B5: CIgG4F2A1(RS) (Fc fusion)
chain 1: GPPCPPCPAPEFLGGPSVFLFPPKPKDTLMISRTPEVTCVVVDVSQEDPEVQFNWYVDGVEVHNAKTKPREEQFNSTYRVVSVLTVLHQDWLNGKEYKCKVSNKGLPSSIEKTISKAKGQPREPQVYTLPPCQEEMTKNQVSLWCLVKGFYPSDIAVEWESNGQPENNYKTTPPVLDSDGSFFLYSRLTVDKSRWQEGNVFSCSVMHEALHNHYTQKSLSLSLGKRSDVQLQESGGGLVQAGGSLKLSCAASGGSLSRYDMGWFRQAPGKEREFVARISWSGDTKYYADAVEGRFAISRDNAQNTVYLQMNSLKPEDTAVYYCAVALYGNRGYYDVNTYSYWGQGTRVTVS
chain 2: GPPCPPCPAPEFLGGPSVFLFPPKPKDTLMISRTPEVTCVVVDVSQEDPEVQFNWYVDGVEVHNAKTKPREEQFNSTYRVVSVLTVLHQDWLNGKEYKCKVSNKGLPSSIEKTISKAKGQPREPQVCTLPPSQEEMTKNQVSLSCAVKGFYPSDIAVEWESNGQPENNYKTTPPVLDSDGSFFLVSRLTVDKSRWQEGNVFSCSVMHEALHNHYTQKSLSLSLGKRSEVQLLESGGGLVQPGGSLRLSCAASGFTFGNYDMAWVRQAPGKRPEWVSSIDTGGDITHYADSVKGRFTISRDNAKNTLYLQMNSLRPEDTAVYWCATDEEYALGPNEFDYYGQGTLVTVSS
B6: NIgG4F2A1(G4S)3 (Fc fusion)
chain 1: DVQLQESGGGLVQAGGSLKLSCAASGGSLSRYDMGWFRQAPGKEREFVARISWSGDTKYYADAVEGRFAISRDNAQNTVYLQMNSLKPEDTAVYYCAVALYGNRGYYDVNTYSYWGQGTRVTVSGGGGSGGGGSGGGGSGPPCPPCPAPEFLGGPSVFLFPPKPKDTLMISRTPEVTCVVVDVSQEDPEVQFNWYVDGVEVHNAKTKPREEQFNSTYRVVSVLTVLHQDWLNGKEYKCKVSNKGLPSSIEKTISKAKGQPREPQVYTLPPCQEEMTKNQVSLWCLVKGFYPSDIAVEWESNGQPENNYKTTPPVLDSDGSFFLYSRLTVDKSRWQEGNVFSCSVMHEALHNHYTQKSLSLSLGK
chain 2: EVQLLESGGGLVQPGGSLRLSCAASGFTFGNYDMAWVRQAPGKRPEWVSSIDTGGDITHYADSVKGRFTISRDNAKNTLYLQMNSLRPEDTAVYWCATDEEYALGPNEFDYYGQGTLVTVSSGGGGSGGGGSGGGGSGPPCPPCPAPEFLGGPSVFLFPPKPKDTLMISRTPEVTCVVVDVSQEDPEVQFNWYVDGVEVHNAKTKPREEQFNSTYRVVSVLTVLHQDWLNGKEYKCKVSNKGLPSSIEKTISKAKGQPREPQVCTLPPSQEEMTKNQVSLSCAVKGFYPSDIAVEWESNGQPENNYKTTPPVLDSDGSFFLVSRLTVDKSRWQEGNVFSCSVMHEALHNHYTQKSLSLSLGK
B7: NIgG4F2A1(G4S)1 (Fc fusion)
chain 1: DVQLQESGGGLVQAGGSLKLSCAASGGSLSRYDMGWFRQAPGKEREFVARISWSGDTKYYADAVEGRFAISRDNAQNTVYLQMNSLKPEDTAVYYCAVALYGNRGYYDVNTYSYWGQGTRVTVSGGGGSGPPCPPCPAPEFLGGPSVFLFPPKPKDTLMISRTPEVTCVVVDVSQEDPEVQFNWYVDGVEVHNAKTKPREEQFNSTYRVVSVLTVLHQDWLNGKEYKCKVSNKGLPSSIEKTISKAKGQPREPQVYTLPPCQEEMTKNQVSLWCLVKGFYPSDIAVEWESNGQPENNYKTTPPVLDSDGSFFLYSRLTVDKSRWQEGNVFSCSVMHEALHNHYTQKSLSLSLGK
chain 2: EVQLLESGGGLVQPGGSLRLSCAASGFTFGNYDMAWVRQAPGKRPEWVSSIDTGGDITHYADSVKGRFTISRDNAKNTLYLQMNSLRPEDTAVYWCATDEEYALGPNEFDYYGQGTLVTVSSGGGGSGPPCPPCPAPEFLGGPSVFLFPPKPKDTLMISRTPEVTCVVVDVSQEDPEVQFNWYVDGVEVHNAKTKPREEQFNSTYRVVSVLTVLHQDWLNGKEYKCKVSNKGLPSSIEKTISKAKGQPREPQVCTLPPSQEEMTKNQVSLSCAVKGFYPSDIAVEWESNGQPENNYKTTPPVLDSDGSFFLVSRLTVDKSRWQEGNVFSCSVMHEALHNHYTQKSLSLSLGK
B8: CIgG4F1A1(G4S)2 (Fc fusion)
chain 1: GPPCPPCPAPEFLGGPSVFLFPPKPKDTLMISRTPEVTCVVVDVSQEDPEVQFNWYVDGVEVHNAKTKPREEQFNSTYRVVSVLTVLHQDWLNGKEYKCKVSNKGLPSSIEKTISKAKGQPREPQVYTLPPCQEEMTKNQVSLWCLVKGFYPSDIAVEWESNGQPENNYKTTPPVLDSDGSFFLYSRLTVDKSRWQEGNVFSCSVMHEALHNHYTQKSLSLSLGKGGGGSGGGGSDVQLQESGGGLVQAGGSLKLSCAASGGSLSRYDMGWFRQAPGKEREFVARISWSGTTKYYADAVKGRFAISRDNAKNTVYLQMNSLKPEDTAVYYCAAAFYGNRGYYDVNAYTSSGQGTQVTVS
chain 2: GPPCPPCPAPEFLGGPSVFLFPPKPKDTLMISRTPEVTCVVVDVSQEDPEVQFNWYVDGVEVHNAKTKPREEQFNSTYRVVSVLTVLHQDWLNGKEYKCKVSNKGLPSSIEKTISKAKGQPREPQVCTLPPSQEEMTKNQVSLSCAVKGFYPSDIAVEWESNGQPENNYKTTPPVLDSDGSFFLVSRLTVDKSRWQEGNVFSCSVMHEALHNHYTQKSLSLSLGKGGGGSGGGGSEVQLLESGGGLVQPGGSLRLSCAASGFTFGNYDMAWVRQAPGKRPEWVSSIDTGGDITHYADSVKGRFTISRDNAKNTLYLQMNSLRPEDTAVYWCATDEEYALGPNEFDYYGQGTLVTVSS

The target of this test is mixture of three Der p 2 specific recombinant human IgE clones H10, H12, P4E (human) (UniProt P01854). Put plainly: RBL-SX38 IgE displacement, FACS.
Chain of mixture of three Der p 2 specific recombinant human IgE clones H10, H12, P4E (human) (P01854 other isoform, or with tags, fused parts or gaps): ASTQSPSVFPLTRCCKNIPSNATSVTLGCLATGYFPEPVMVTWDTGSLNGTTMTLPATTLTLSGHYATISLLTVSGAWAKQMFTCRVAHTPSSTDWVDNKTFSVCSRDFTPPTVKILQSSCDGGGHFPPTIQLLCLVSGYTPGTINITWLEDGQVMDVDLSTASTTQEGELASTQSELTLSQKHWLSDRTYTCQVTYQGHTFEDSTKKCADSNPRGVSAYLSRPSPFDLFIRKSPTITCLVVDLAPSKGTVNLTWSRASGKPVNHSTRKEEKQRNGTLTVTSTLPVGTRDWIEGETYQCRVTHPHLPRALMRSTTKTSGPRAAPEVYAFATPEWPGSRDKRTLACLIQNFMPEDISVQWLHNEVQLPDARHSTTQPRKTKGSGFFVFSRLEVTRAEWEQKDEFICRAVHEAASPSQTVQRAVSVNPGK
For B1, the EC50 was 2 nM and the Max effect/effect 1 µM amounted to 88%. As for B2, the Max effect/effect 1 µM amounted to 8%. As to B3, the EC50 worked out at 2 nM and the Max effect/effect 1 µM came out at 94%. With B4, the Max effect/effect 1 µM was determined as 0%. Still for that read-out and setting: in the case of B5 it was 3%. As to B6, the EC50 was determined as 2 nM and the Max effect/effect 1 µM stood at 95%.

With B7, the EC50 was found to be 2 nM and the Max effect/effect 1 µM was determined as 92%. For B8, the Max effect/effect 1 µM is 18%.
